What was measured:
[1] = system: N-terminal lysine and histidine; test: Polarization binding assay of PS691, peptides with N-terminal arginine, lysine, histidine; conditions: compared with N-terminal arginine
Method: In a separate screen, a diverse set of UBR-box domains from the UBR family of ubiquitin ligases that natively bind N-terminal arginine, lysine, and histidine were investigated. […] PS691 recognized arginine in a peptide with N-terminal RLA with a median PD of 0.23 s (FIG. 2C).
(§1) Binding affinity was measured by polarization using a labeled peptide. The polarization response and total intensity measurements were carried out at 20° C. on a microplate fluorometer with 480 nm excitation and 530 nm emission. The interaction of recognizer with labeled peptide containing a target N-terminal residue (XAKLDEESILKQK-FITC (SEQ ID NO: 833)) was performed in PBS buffer at pH 7.4 and readings were collected after 30 min. Multiple analyses were performed at increasing recognizer concentration at a fixed concentration of a target peptide to obtain a titration curve. An equilibrium polarization response at each concentration was plotted and fit to calculate the KD.

[2] = molecular target: N-terminal leucine, isoleucine, and valine; test: Binding affinity of PS961 (bulk characterization, polarization), N-terminal leucine, isoleucine, valine
Source text: To expand the set of recognizable NAAs, N-end rule pathway proteins were investigated as a source of additional recognizers. In a comprehensive screen of diverse ClpS family proteins, a group of ClpS proteins from the bacterial phylum Planctomycetes with native binding to N-terminal leucine, isoleucine, and valine was discovered. […] The median PD of binding to peptides with N-terminal LAA, IAA, and VAA was 1.21, 0.28, and 0.21 s, respectively, in agreement with bulk characterization (FIG. 7C).
as §1

Row | Binding to N-terminal lysine and histidine [1] | Affinity [2] | Molecule
1 | Lower affinity |  | PS691: arginine recognizer generated from the UBR-box domain of K. lactis UBR1 protein (protein) MHSKFSHAGRICGAKFKVGEPIYRCKECSFDDTCVLCVNCFNPKDHTGHHVYTTICTEFNNGICDCGDKEAWNHTLFCKAEEGGSAGSAAGSGEFMHSKFSHAGRICGAKFKVGEPIYRCKECSFDDTCVLCVNCFNPKDHTGHHVYTTICTEFNNGICDCGDKEAWNHTLFCKAEEGGGSHHHHHHHHHHGGGSGGGSGGGSGLNDFFEAQKIEWHEGGGSGGGSGGGSGLNDFFEAQKIEWHE
2 |  | sub-micromolar | PS961: Planctomycetes ClpS variant recognizer for N-terminal leucine, isoleucine, and valine (protein) MPTAASATESAIEDTPAPARPEVDGRTKPKRQPRYHVVLWDDDDHTYQYVVVMLRSLFGHPPSRGYRMAKEMDTQGRVIVLTTTREHAELKRDQIHAFGRDRLLARSKGSMKASIEAEE

Source: patent publication US20230213527A1, “COMPOSITIONS AND METHODS FOR POLYPEPTIDE ANALYSIS” (Quantum-Si Incorporated, priority 2021, published 2023)
